The source of these data is publication PMC3902906.

Series [1] has as its target CsoR^Sl Q81A (copper sensitive operon repressor from Streptomyces lividans, Q81A mutant) (Streptomyces lividans 1326). Nature of the series: SEC; analytical gel filtration column, retention volume of the purified mutant protein alone; data not shown. (Size exclusion chromatography separates by hydrodynamic size, large species first.)
Series [2] addresses CsoR^Sl R129A (copper sensitive operon repressor from Streptomyces lividans, R129A mutant) (Streptomyces lividans 1326). The series is described as above.
Series [3] has as its target CsoR (CsoRSl) wild type (Streptomyces lividans 1326) (UniProt D6EK73). Kind of series: ITC. Particulars: ITC: 10 mM HEPES, 150 mM NaCl, pH 7.5, 25 C, 100 uM DNA into 10 uM CsoR tetramer, EMSA: same buffer, room temperature, 30 min, 6% PAGE in TBE, SEC: same buffer. For orientation: In EMSA bound probe runs differently from free probe, usually more slowly.
For series [4], the target named is CsoR^Sl R57A (copper sensitive operon repressor from Streptomyces lividans, R57A mutant) (Streptomyces lividans 1326). Nature of the series: SEC; analytical gel filtration column, retention volume of the purified mutant protein alone; data not shown.
Series [5] deals with CsoR^Sl R54A (copper sensitive operon repressor from Streptomyces lividans, R54A mutant) (Streptomyces lividans 1326). The description is as above.
Series [6] concerns the target CsoR^Sl R132A (copper sensitive operon repressor from Streptomyces lividans, R132A mutant) (Streptomyces lividans 1326). The series is described as above.

pKd: −log10 of the molar value.

“CsoR^Sl Q81A (copper sensitive operon repressor from Streptomyces lividans, Q81A mutant) (natural protein)” had a stoichiometry N in series [1] of 4.
Take “CsoR^Sl R129A (copper sensitive operon repressor from Streptomyces lividans, R129A mutant) (natural protein)”: the stoichiometry N in series [2] came to 4.
In turn, “TACCCCCTAGGGGTAT (double strand) [copZA1-CON]” had a pKd in series [3] of 6.01.
The same measure, in the same setting: as for “ATACCCCTGGTGGGTATAT (double strand) [csoR-CON]”, the figure is 6.92.
Substance “CGTTGGATACCCCCTAGGGGTATACATGG (double strand) [copZA1-GTA up]” gave a pKd in series [3] of 7.02.
For the substance “CsoR^Sl R57A (copper sensitive operon repressor from Streptomyces lividans, R57A mutant) (natural protein)”, the stoichiometry N in series [4] worked out at 4.
As to “CsoR^Sl R54A (copper sensitive operon repressor from Streptomyces lividans, R54A mutant) (natural protein)”, the stoichiometry N in series [5] turned out to be 4.
Regarding “GCCTTTATACCCCCTAGGGGTAAGGTGGG (double strand) [copZA2-EXT]”, the pKd in series [3] is 7.24.
“CGGACAAATACCCCTGGTGGGTATATATGG (double strand) [csoR-EXT]” showed a pKd in series [3] of 7.13. This pKd and that of the substance before are within 0.2 log units of each other.
“CGTTGGGTACCCCCTAGGGGTATACATGG (double strand) [copZA1-EXT]” gave a pKd in series [3] (apo, reverse titration (protein into DNA), N 0.86) of 6.95.
Regarding “CsoR^Sl R132A (copper sensitive operon repressor from Streptomyces lividans, R132A mutant) (natural protein)”, in series [6], the stoichiometry N was 4.
As to “TATACCCCCTAGGGGTA (double strand) [copZA2-CON]”, the pKd in series [3] is 6.97.
In the case of “CGTTGGGTACCCCCTAGGGGTATATATGG (double strand) [copZA1-GTA down]”, in series [3], the pKd is 7.06. The pKd values of the last two substances are within 0.2 log units of each other.

Usually stoichiometry N stands for a count of units in the complex or per binding partner. One may read the pKd as −log10 of the Kd, conventionally taken in molar units.
